The results in this text go back to the RNAGym collection of RNA variant scans (doi:10.1073/pnas.2313332121).

B1: TPR t1 (parent)
chain: GACCAAUCUGCCCUCAGAGCUCGAGAACAUCUUCGGAUGCAGAGGAGGCAGGCUUCGGUGGCGCGAUAGCGCCAACGUCCUCAACCUCCAAUGCAUCCCACCACAUGAUGAUGCCUGAAGAGCCUUGGUUUUUUG

The variants in the series derive from B1. Nature of the series: polymerase ribozyme fitness, log enrichment relative to wild type (log ratio); higher = more active; in vitro selection for triplet polymerase activity. The method, boiled down:
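For each subunit of a heterodimeric triplet polymerase ribozyme, a mutant library was built by PCR and transcribed, then taken through a single in vitro selection round in triplicate. Selection involved annealing to a biotinylated primer, the partner subunit and triplets, incubation frozen at −7 °C, gel excision of extended constructs, capture on streptavidin beads and RT-PCR. Genotypes were retained after Illumina sequencing of inputs and outputs only with ≥10 input reads and ≥1 read in each output. Fitness is defined as the logarithm of a genotype's enrichment relative to wild-type enrichment, using inverse-variance-weighted averages across replicates, with the logarithm taken to base 2.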
With C12A C86G C123A, the “polymerase ribozyme fitness (log ratio)” value is 0.105. To G52U G117A belongs -1.81; to C40U U109C, -4.01. To A18U C49U A68U U92A U96A G110C belongs -7.53. To C4U G71U belongs -0.506.

Consider U9A C13G A16U A41U, for which the “polymerase ribozyme fitness (log ratio)” value was -1.62. To C64U C86U G110U G122A belongs -4.18; to C73G C86A, -1.38; to C12U G39U G113U U116G, -5.84. To A18U C76A G93C belongs -4.09; to C15A A43G C53U, -3.68. To C8A C56G A91C C123A belongs 0.619. Take C8G G58C A75C A108U U132A: the “polymerase ribozyme fitness (log ratio)” value was -5.79. To C89A G117U belongs -4.53; to A24G C88G C123A U129A, -4.43. To C40G A43G C114U belongs -4.36; to U59G G71A, -3.25.

Take C13A U78A: the “polymerase ribozyme fitness (log ratio)” value was -2.18. For A74U U87A C102U C104A, the “polymerase ribozyme fitness (log ratio)” value is -2.53. To A6U G44A belongs -1.02. Turning to G10U A37U, the “polymerase ribozyme fitness (log ratio)” value is -0.888. To C15U G36A A121C belongs 0.213; to A2G G10U A43U C62G C79U, -3.6. For the variant A66G, the “polymerase ribozyme fitness (log ratio)” value is -0.466.

Regarding C15A C40A C102U C114G, the “polymerase ribozyme fitness (log ratio)” value is -6.22.

As for C4G U96A G127U, the “polymerase ribozyme fitness (log ratio)” value was -1.19. To G47A G51U C72U U78C belongs -5. Regarding G10U C53G U78A, the “polymerase ribozyme fitness (log ratio)” value is -2.99. To G17U G63C belongs -3.04. To G44U G120U belongs -0.505; to A41G U106A, -0.451.

G17A G60U C79A: the “polymerase ribozyme fitness (log ratio)” value was -5.25.

Take G60U C79U: the “polymerase ribozyme fitness (log ratio)” value was 0.386. To A6C U38A A43U belongs -3.16; to C40U C56A A74C U130C, -1.15. To G113A G128A belongs -2.92; to G60U C85A, -0.541. On to G45A C89U, for which the “polymerase ribozyme fitness (log ratio)” value was -1.44. In the case of G93A A111U G122C, the “polymerase ribozyme fitness (log ratio)” value is -4.63. To C4G U21A A24G A46U U125A belongs -4.02; to A37U U112A, 0.71. To C8G C20U G61A C101U belongs -0.517; to C40A C72G A119U U130C U131A, -1.75; to A18C G58C, -2.1. To U14A G71C G128A belongs -3.99. On to U9C C11U G17C A41U, for which the “polymerase ribozyme fitness (log ratio)” value is -4.76. To C4G C15A U54A A121C belongs -2.91; to C31A G45U C115G, -6.15; to A50U C79U, -1.76.

U7A C8A G19U C97G A105G C124U: the “polymerase ribozyme fitness (log ratio)” value was -7.51. To A6U U92G belongs -2.92; to C72U C85G, -2.48; to A5G C89U, -0.12. To G42C G69U C70G belongs -1.55. To C12U C13U belongs -0.904; to A29U C70G, -3.31; to U21A C76U, -0.123. For the variant G47U G60U, the “polymerase ribozyme fitness (log ratio)” value was -1.15. To A43U C56G G63A belongs -5.13; to C8U U55G G113C, -1.85; to C104U U112G, 0.761. To G35C C88A belongs -5.61. With G127U U132C, the “polymerase ribozyme fitness (log ratio)” value was -0.0869.

With A5G U55C C72A C73A G77U A121C, the “polymerase ribozyme fitness (log ratio)” value was -1.86.

As to C11U C85G U109G C123A, the “polymerase ribozyme fitness (log ratio)” value is -5.74. For C79A C123U, the “polymerase ribozyme fitness (log ratio)” value came out at 0.304. To C82G G127A belongs -2; to G71A C82A, -1.72.

For C8G G120A, the “polymerase ribozyme fitness (log ratio)” value was 1.78. To A27G C40U C49G C73U belongs -2.98. To C56U A83C A121U G127U U133G belongs 1.28. Take G10U C11G A29C C53A A74U: the “polymerase ribozyme fitness (log ratio)” value was -3.94.

For the variant A5U G117C, the “polymerase ribozyme fitness (log ratio)” value is -2.92. As to U59A C88G, the “polymerase ribozyme fitness (log ratio)” value was -1.44. To G19U U54G C56U C123G belongs -6.86; to U14C G48U C72G, -2.66; to A2G G63C, -0.0882. As to C49U C76G G113A, the “polymerase ribozyme fitness (log ratio)” value is -1.81. To A2U C4A U33G C49G G58C A121C belongs -5.98; to A43C U112A G113C, -1.28; to A43G G44U A46U U133A, -2.67. To C11G G61U C86A U106G C114U belongs -4.18; to A50G G60A, 0.351. To A84C C88A belongs -0.593.
